Literature values in PMC5057102.

Target: Amyloid beta oligomers (1-40/1-42, form not specified) (UniProt P05067)
Experiment: not stated (cited)
Settings: 5'-HS (thiol); 0.1 M phosphate buffer (Na2HPO4/NaH2PO4) pH 7.4; incubations at 37 C (Abeta 60 min, aptamer-Au-Th 3 h); 1% BSA block

Amyloid beta oligomers (1-40/1-42, form not specified), sequence (P05067 672-711): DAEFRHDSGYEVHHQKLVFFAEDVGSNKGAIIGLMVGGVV

## GCCTGTGTTGGGGCGGGTGCG [Abeta oligomer aptamer (thiolated, on AuNP with thionine)]
  Kd: 25 nM
